B1: OR4K15 (parent)
chain: GUUAACGGUCAUAGGCCAUGGAAACUAGGAGCACCAUUUCGCUGCCAGUGAAGAAAUGAACAAAGAAAAUCUGGGCCAGGCAGGCAUCAAAAGAAAUAGUCUUGCGCUCAACCAGAAAGUCUGUAAUCAUUUUAAGGGUA

Variants of: B1
Assay: self-cleavage, relative activity (ratio to wild type); higher = more cleavage; in vitro, sequencing; the parent is a self-cleaving ribozyme

Variant	self-cleavage
GUUAACGGUCAUAGGCCAUGGCAACUAGGAGCACCAUUUCGCUGCCAGUGAAGAAAUGAACAAAGAAAAUCUGGGCCAGGCAGGCAUCAAAAGAAGUAGUCUUGCGCUCAACCAGAAAGUCUGUAAUCAUUUUAAGGGUA	2.53
GUUAACGGUCAUAGGCCAUGGCAACUAGGAGCACCAUUUCGCUGCCAGUGAAGAAAUGAACAAAGAAAAUCUGGGCCAGGCAGGCAUCAAAAGUAAUAGUCUUGCGCUCAACCAGAAAGUCUGUAAUCAUUUUAAGGGUA	2.06
GUUAACGGUCAUAGGCCAUGGCAACUAGGAGCACCAUUUCGCUGCCAGUGAAGAAAUGAACAAAGAAAAUCUGGGCCAGGCAGGCAUCAAAAGAAAUAGUCUUGCGCUCAACCAGAAAGUCUGUAAUCAUGUUAAGGGUA	0.94
GUUAACGGUCAUAGGCCAUGUAAACUAGGAGCACCAUUUCGCUGCCAGUGAAGAAAUGAACAAAGAAAAUCUGGGCCAGGCAGGCACCAAAAGAAAUAGUCUUGCGCUCAACCAGAAAGUCUGUAAUCAUUUUAAGGGUA	1.55
GUUAACGGUCAUAGGCCAUGGCAACUAGGAGCACCAUUUCGCUGCCAGUGAAGAAAUGAACAAAGAAAACCUGGGCCAGGCAGGCAUCAAAAGAAAUAGUCUUGCGCUCAACCAGAAAGUCUGUAAUCAUUUUAAGGGUA	1.25
GUUAACGGUCAUAGGCCAUGCAAACUAGGAGCACCAUUUCGCUGCCAGUGAAGAAAUGAACAAAGAAAAUCUGGGCCAGGCAGGCAUCAAAAGAAAUAGUCUUGCGCCCAACCAGAAAGUCUGUAAUCAUUUUAAGGGUA	0.02
GUUAACGGUCAUAGGCCAUGUAAACUAGGAGCACCAUUUCGCUGCCAGUGAAGAAAUGAACAAAGAAAAUCUGGGCCAGGCAGGCAUCAAAAGAAAUAGUCUUGCGCCCAACCAGAAAGUCUGUAAUCAUUUUAAGGGUA	0.02
GUUAACGGUCAUAGGCCAUGAAAACUAGGAGCACCAUUUCGCUGCCAGUGAAGAAAUGAACAAAGAAAAUCUGGGCCAGGCAGGCAUCAAAAGAAAUUGUCUUGCGCUCAACCAGAAAGUCUGUAAUCAUUUUAAGGGUA	2.32
GUUAACGGUCAUAGGCCAUGAAAACUAGGAGCACCAUUUCGCUGCCAGUGAAGAAAUGAACAAAGAAAAUCUGGGCCAGGCAGGCAUCAAAAGAAAUAGUCUUGCGCUCAACCAGAAAGUCUGUAAUCAUUUUAAGGAUA	0.84
GUUAACGGUCAUAGGCCAUGAAAACUAGGAGCACCAUUUCGCUGCCAGUGAAGAAAUGAACAAAGAAAAUCUGGGCCAGGCAGGCAUCAAAAGAAAUAGUCUUGCGCUCAACCAGAAAGUCUGUAACCAUUUUAAGGGUA	1.32
GUUAACGGUCAUAGGCCAUGAAAACUAGGAGCACCAUUUCGCUGCCAGUGAAGAAAUGAACAAAGAAAAUCUGGGCCAGGCAGGCAUCAAAAGGAAUAGUCUUGCGCUCAACCAGAAAGUCUGUAAUCAUUUUAAGGGUA	1.81
GUUAACGGUCAUAGGCCAUGAAAACUAGGAGCACCAUUUCGCUGCCAGUGAAGAAAUGAACAAAGAAAUUCUGGGCCAGGCAGGCAUCAAAAGAAAUAGUCUUGCGCUCAACCAGAAAGUCUGUAAUCAUUUUAAGGGUA	1.48
GUUAACGGUCAUAGGCCAUGAAAACUAGGAGCACCAUUUCGCUGCCAGUGAAGAAAUGAACAAAGAAAAUCUGGGCCAGGCAGGCAUCAAAAGAAAUAGUCUUGCGCUCAACCAGAAAGUCUGUAAUCAUUUUAAGGGUG	1.48
GUUAACGGUCAUAGGCCAUGUAAACUAGGAGCACCAUUUCGCUGCCAGUGAAGAAAUGAACAAAGAAAAUCUGGGCCAGGCGGGCAUCAAAAGAAAUAGUCUUGCGCUCAACCAGAAAGUCUGUAAUCAUUUUAAGGGUA	0.98
GUUAACGGUCAUAGGCCAUGUAAACUAGGAGCACCAUUUCGCUGCCAGUGAAGAAAUGAACAAAGAAAAUCUGGGCCAGGCAGGCAUCAAAAGAAAUAGUCCUGCGCUCAACCAGAAAGUCUGUAAUCAUUUUAAGGGUA	2.03
GUUAACGGUCAUAGGCCAUGGCAACUAGGAGCACCAUUUCGCUGCCAGUGAAGAAAUGAACAAAGAAAAUCUGGGCCAGGCAGGCAUCAAAAGAAAUAGUCUUGCGCUCAACCAGAAAGUCUGUAACCAUUUUAAGGGUA	1.48
GUUAACGGUCAUAGGCCAUGUAAACUAGGAGCACCAAUUCGCUGCCAGUGAAGAAAUGAACAAAGAAAAUCUGGGCCAGGCAGGCAUCAAAAGAAAUAGUCUUGCGCUCAACCAGAAAGUCUGUAAUCAUUUUAAGGGUA	1.06
GUUAACGGUCAUAGGCCAUGAAAACUAGGAGCACCAUUUCGCUGCCAGUGAAGAAAUGAACAAAGAAGAUCUGGGCCAGGCAGGCAUCAAAAGAAAUAGUCUUGCGCUCAACCAGAAAGUCUGUAAUCAUUUUAAGGGUA	1.55
GUUAACGGUCAUAGGCCAUGAAAACUAGGAGCACCAUUUCGCUGCCAGUGAAGAAAUGAACAAAGAAAAUCUGGGCCAGGCAGGCAUCAAAAGAAAUAGUCUUGCGCUCAACCAGGAAGUCUGUAAUCAUUUUAAGGGUA	0.46
GUUAACGGUCAUAGGCCAUGAAAACUAGGAGCACCAUUUCGCUGCCAGUGAAGAAAUGAACAAAGAAAAUCUGGGCCAGGCAGGCAUCAAAAGAAAUAGUCUUGCGCUCAACCUGAAAGUCUGUAAUCAUUUUAAGGGUA	0.05
GUUAACGGUCAUAGGCCAUGUAAACUAGGAGCACCAUUUCGCUGCCAGUGAAGAAAUGAACAAAAAAAAUCUGGGCCAGGCAGGCAUCAAAAGAAAUAGUCUUGCGCUCAACCAGAAAGUCUGUAAUCAUUUUAAGGGUA	1.96

Variant	self-cleavage
GUUAACGGUCAUAGGCCAUGAAAACUAGGAGCACCAUUUCGCUGCCAGUGAAGAAAUGAACAAAGAAAACCUGGGCCAGGCAGGCAUCAAAAGAAAUAGUCUUGCGCUCAACCAGAAAGUCUGUAAUCAUUUUAAGGGUA	1.39
GUUAACGGUCAUAGGCCAUGGCAACUAGGAGCACCAUCUCGCUGCCAGUGAAGAAAUGAACAAAGAAAAUCUGGGCCAGGCAGGCAUCAAAAGAAAUAGUCUUGCGCUCAACCAGAAAGUCUGUAAUCAUUUUAAGGGUA	2.55
GUUAACGGUCAUAGGCCAUGAAAACUAGGAGCACCAUUUCGCUGCCAGUGAAGAAAUGAACAAAGAAAAUCUGGGCCAGGCAGGCAUCAAAAGAAAUAGUCUUGCACUCAACCAGAAAGUCUGUAAUCAUUUUAAGGGUA	0.02
GUUAACGGUCAUAGGCCAUGAAAACUAGGAGCACCAUUUCGCUGCCAGUGAAGAAAUGAACAAAGAAAAUCUGGGCCAGGCAGGCAUCAAAAGAAAUAGUCUUGCGCUCAACCAGAAAGUCGGUAAUCAUUUUAAGGGUA	2.56
GUUAACGGUCAUAGGCCAUGUGAACUAGGAGCACCAUUUCGCUGCCAGUGAAGAAAUGAACAAAGAAAAUCUGGGCCAGGCAGGCAUCAAAAGAAAUAGUCUUGCGCUCAACCAGAAAGUCUGUAAUCAUUUUAAGGGUA	1.71
GUUAACGGUCAUAGGCCAUGAAAACUAGGAGCACCAUUUCGCUGCCAGUGAAGAAAUGAACAAAGAAAAUCUGGGCCAGGCAGGGAUCAAAAGAAAUAGUCUUGCGCUCAACCAGAAAGUCUGUAAUCAUUUUAAGGGUA	0.64
GUUAACGGUCAUAGGCCAUGUAAACUAGGAGCACCAUUUCGCUGCCAGUGAAGAAAUGAACGAAGAAAAUCUGGGCCAGGCAGGCAUCAAAAGAAAUAGUCUUGCGCUCAACCAGAAAGUCUGUAAUCAUUUUAAGGGUA	1.54
GUUAACGGUCAUAGGCCAUGAAAACUAGGAGCACCAUUUCGCUGCCAGUGAAGAAAUGAACAAAGAAAAUCUGGGCCAGGCAGGCAUCAAAAGAAAUAGUCUUGCGCUCAACCAGAAAGUCUGUGAUCAUUUUAAGGGUA	0.73
GUUAACGGUCAUAGGCCAUGAAAACUAGGAGCACCAUUUCGCUGCCAGUGAAGAAAUGAACAAAGAAAAUCUGGGCCAGGCAGGCAUCAGAAGAAAUAGUCUUGCGCUCAACCAGAAAGUCUGUAAUCAUUUUAAGGGUA	0.38
GUUAACGGUCAUAGGCCAUGAAAACUAGGAGCACCAUAUCGCUGCCAGUGAAGAAAUGAACAAAGAAAAUCUGGGCCAGGCAGGCAUCAAAAGAAAUAGUCUUGCGCUCAACCAGAAAGUCUGUAAUCAUUUUAAGGGUA	1.28
GUUAACGGUCAUAGGCCAUGGCAACUAGGAGCACCAUUUCGCUGCCAGUGAAGAAAUGAACAAAGAAAAUCUGGGCCAGGCAGGCAUCCAAAGAAAUAGUCUUGCGCUCAACCAGAAAGUCUGUAAUCAUUUUAAGGGUA	1.57
GUUAACGGUCAUAGGCCAUGUAAACUAGGAGCACCAUUUCGCUGCCAGUGAAGAAAUGAACAAAGAAAAUCUGGGCCAGGCAGGCAUCAAAAGAAAUAGUCUUGCGCUCAACCAGAAAGUCAGUAAUCAUUUUAAGGGUA	1.42
GUUAACGGUCAUAGGCCAUGUAAACUAGGAGCACCAUUUCGCUGCCAGUGAAGAAAUGAACAAAGAAAAUCUGGGCCAGGCAGGCAUCAGAAGAAAUAGUCUUGCGCUCAACCAGAAAGUCUGUAAUCAUUUUAAGGGUA	1.16
GUUAACGGUCAUAGGCCAUGAAAACUAGGAGCACCAUUUCGCUGCCAGUGAAGAAAUGAACAAAGAAAAUCUGGGCCAGGCAGGCAUCAAAAGAAAUAGUCUUGCGCUCAACCAGAAAGUCUGUAAUCAUUUUACGGGUA	1.25
GUUAACGGUCAUAGGCCAUGAAAACUAGGAGCACCAUUUCGCUGCCAGUGAAGAAAUGAACAAAGAGAAUCUGGGCCAGGCAGGCAUCAAAAGAAAUAGUCUUGCGCUCAACCAGAAAGUCUGUAAUCAUUUUAAGGGUA	1.78
GUUAACGGUCAUAGGCCAUGAAAACUAGGAGCACCAUUUCGCUGCCAGUGAAGAAAUGAACAAAGAAAAUCUGGGCCUGGCAGGCAUCAAAAGAAAUAGUCUUGCGCUCAACCAGAAAGUCUGUAAUCAUUUUAAGGGUA	0.86
GUUAACGGUCAUAGGCCAUGAAAACUAGGAGCACCAUUUCGCUGCCAGUGAAGAAAUGAACAAAGAAAAUCUGGGCCAGGCAGGCAUCAAAAGAGAUAGUCUUGCGCUCAACCAGAAAGUCUGUAAUCAUUUUAAGGGUA	2.07
GUUAACGGUCAUAGGCCAUGGCAACUAGGAGCACCAUUUCGCUGCCAGUGAAGAAAUGAACAAAGAAAAUCUGGGCCAGGCAGGCAUCAAAAGAAAUAGUCUUGCGCUCAACCAGAAAGUCUGUAAUCAUUUUAAGGGUA	1.11
GUUAACGGUCAUAGGCCAUGGGAACUAGGAGCACCAUUUCGCUGCCAGUGAAGAAAUGAACAAAGAAAAUCUGGGCCAGGCAGGCAUCAAAAGAAAUAGUCUUGCGCUCAACCAGAAAGUCUGUAAUCAUUUUAAGGGUA	1.09
GUUAACGGUCAUAGGCCAUGGCAACUAGGAGCACCAUUUCGCUGCCAGUGAAGAAAUGAACAUAGAAAAUCUGGGCCAGGCAGGCAUCAAAAGAAAUAGUCUUGCGCUCAACCAGAAAGUCUGUAAUCAUUUUAAGGGUA	1.85
